Results reported in PMC7867188, “Biosensor-Based Directed Evolution of Methanol Dehydrogenase from Lysinibacillus xylanilyticus” (International Journal of Molecular Sciences, 2021).
Residue numbers refer to the chain shown, from its start. Names and notes keep the numbering of the source.

B1: Lxmdh (methanol dehydrogenase, Mdh, NAD-dependent) (Lysinibacillus xylanilyticus) (protein)
chain: MSDVLKQFVMPKTNLFGPGAIQEVGTRLNDLEVKKTLIVTDEGLHKLGLSEQIANIITAAGIDVAIFPKAEPNPTDQNIEDGIAVYHAENCDSIVSLGGGSAHDAAKGIGLIASNGGRIHDYEGVDKSQNPLVPLIAINTTAGTASEMTRFTIITDTARKVKMAIVDKHVTPLLSINDPELMIGLPPALTAATGLDALTHAIESFVSTNATPITDACAEKVLQLVPEYLPRAYANGADLEAREQMVYAQFLAGMAFNNASLGYVHAIAHQLGGFYNLPHGVCNAILLPHVCRFNLTARTERFARIAELLGENVEALSKRDAAEKAIVAIENLSRDLNIPSGFRELGAKDEDIEILAKNAMLDVCAATNPRKATLEEIKQIITNAMGPVAKKEESLEAVALS
notes: His-tagged (pET28a; cloning primers indicate N-terminal His/thrombin tag and native stop), expressed in E. coli, Ni-NTA purified; cloning primers encode N-terminus MSDVLK and C-terminus KAVALS
B2: Lxmdh (methanol dehydrogenase, Mdh, NAD-dependent) (Lysinibacillus xylanilyticus; E396V/K318N) (protein)
chain: B1 chain with K318N, E396V
notes: as for B1
B3: Lxmdh (methanol dehydrogenase, Mdh, NAD-dependent) (Lysinibacillus xylanilyticus; K46E) (protein)
chain: B1 chain with K46E
notes: as for B1
B4: Lxmdh (methanol dehydrogenase, Mdh, NAD-dependent) (Lysinibacillus xylanilyticus; K318N) (protein)
chain: B1 chain with K318N
notes: as for B1
B5: Lxmdh (methanol dehydrogenase, Mdh, NAD-dependent) (Lysinibacillus xylanilyticus; E396V) (protein)
chain: B1 chain with E396V
notes: as for B1

Substrate: CO
Assay: HPLC of formaldehyde after O-benzylhydroxylamine derivatization; Michaelis-Menten nonlinear fit
Type: biochemical, Lysinibacillus xylanilyticus
Conditions: 3 mM NAD+, 5 mM Mg2+, 50 mM CHES pH 9.5, 55 °C, 10 min, 0-5 mM methanol
Text: HPLC of formaldehyde after O-benzylhydroxylamine derivatization; Michaelis-Menten nonlinear fit on Lxmdh (methanol dehydrogenase, Mdh, NAD-dependent)

Row | Protein | Km | kcat
1 | B1 | 1311 ± 406 µM | 0.0333 ± 0.00333 s⁻¹
2 | B2 | 233 ± 107 µM | 0.0217 ± 0.00167 s⁻¹
3 | B3 | 372 ± 231 µM | 0.0283 ± 0.00333 s⁻¹
4 | B4 | 46 ± 72 µM | 0.0267 ± 0.005 s⁻¹
5 | B5 | 10 ± 3 µM | 0.02 ± 0.00167 s⁻¹
